Measured values reported in patent US20230070886A1 (NOVAVAX, published 2023).

Target: His-tagged human angiotensin-converting enzyme 2 precursor (hACE2) (human, UniProt Q9BYF1 18-740)
Assay: bio-layer interferometry

His-tagged human angiotensin-converting enzyme 2 precursor (hACE2), sequence (Q9BYF1 18-740 limits assumed): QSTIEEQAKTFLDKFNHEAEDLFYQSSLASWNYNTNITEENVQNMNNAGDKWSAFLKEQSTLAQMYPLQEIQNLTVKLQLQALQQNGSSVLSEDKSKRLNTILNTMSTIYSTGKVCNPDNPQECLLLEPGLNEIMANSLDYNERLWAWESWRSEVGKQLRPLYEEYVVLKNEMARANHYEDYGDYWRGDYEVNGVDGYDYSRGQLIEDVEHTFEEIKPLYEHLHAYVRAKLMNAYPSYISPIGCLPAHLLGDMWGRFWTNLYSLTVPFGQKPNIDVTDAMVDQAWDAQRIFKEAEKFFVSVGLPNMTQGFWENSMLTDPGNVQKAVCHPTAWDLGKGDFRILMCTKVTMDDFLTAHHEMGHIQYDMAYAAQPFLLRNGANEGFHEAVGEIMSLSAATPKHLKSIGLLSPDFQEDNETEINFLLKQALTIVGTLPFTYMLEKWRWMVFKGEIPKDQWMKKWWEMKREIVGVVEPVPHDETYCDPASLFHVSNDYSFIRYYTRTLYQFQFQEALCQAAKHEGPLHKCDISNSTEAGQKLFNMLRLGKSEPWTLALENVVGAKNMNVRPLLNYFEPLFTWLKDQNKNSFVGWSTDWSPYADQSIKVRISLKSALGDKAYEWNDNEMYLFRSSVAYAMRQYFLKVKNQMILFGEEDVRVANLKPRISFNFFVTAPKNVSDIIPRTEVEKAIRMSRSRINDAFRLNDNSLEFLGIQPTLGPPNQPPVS

B1: MERS S protein (other)
chain: YVDVGPDSVKSACIEVDIQQTFFDKTWPRPIDVSKADGIIYPQGRTYSNITITYQGLFPYQGDHGDMYVYSAGHATGTTPQKLFVANYSQDVKQFANGFVVRIGAAANSTGTVIISPSTSATIRKIYPAFMLGSSVGNFSDGKMGRFFNHTLVLLPDGCGTLLRAFYCILEPRSGNHCPAGNSYTSFATYHTPATDCSDGNYNRNASLNSFKEYFNLRNCTFMYTYNITEDEILEWFGITQTAQGVHLFSSRYVDLYGGNMFQFATLPVYDTIKYYSIIPHSIRSIQSDRKAWAAFYVYKLQPLTFLLDFSVDGYIRRAIDCGFNDLSQLHCSYESFDVESGVYSVSSFEAKPSGSVVEQAEGVECDFSPLLSGTPPQVYNFKRLVFTNCNYNLTKLLSLFSVNDFTCSQISPAAIASNCYSSLILDYFSYPLSMKSDLSVSSAGPISQFNYKQSFSNPTCLILATVPHNLTTITKPLKYSYINKCSRFLSDDRTEVPQLVNANQYSPCVSIVPSTVWEDGDYYRKQLSPLEGGGWLVASGSTVAMTEQLQMGFGITVQYGTDTNSVCPKLEFANDTKIASQLGNCVEYSLYGVSGRGVFQNCTAVGVRQQRFVYDAYQNLVGYYSDDGNYYCLRACVSVPVSVIYDKETKTHATLFGSVACEHISSTMSQYSRSTRSMLKRRDSTYGPLQTPVGCVLGLVNSSLFVEDCKLPLGQSLCALPDTPSTLTPRSVRSVPGEMRLASIAFNHPIQVDQLNSSYFKLSIPTNFSFGVTQEYIQTTIQKVTVDCKQYVCNGFQKCEQLLREYGQFCSKINQALHGANLRQDDSVRNLFASVKSSQSSPIIPGFGGDFNLTLLEPVSISTGSRSARSAIEDLLFDKVTIADPGYMQGYDDCMQQGPASARDLICAQYVAGYKVLPPLMDVNMEAAYTSSLLGSIAGVGWTAGLSSFAAIPFAQSIFYRLNGVGITQQVLSENQKLIANKFNQALGAMQTGFTTTNEAFHKVQDAVNNNAQALSKLASELSNTFGAISASIGDIIQRLDVLEQDAQIDRLINGRLTTLNAFVAQQLVRSESAALSAQLAKDKVNECVKAQSKRSGFCGQGTHIVSFVVNAPNGLYFMHVGYYPSNHIEVVSAYGLCDAANPTNCIAPVNGYFIKTNNTRIVDEWSYTGSSFYAPEPITSLNTKYVAPQVTYQNISTNLPPPLLGNSTGIDFQDELDEFFKNVSTSIPNFGSLTQINTTLLDLTYEMLSLQQVVKALNESYIDLKELGNYTYYNKWPWYIWLGFIAGLVALALCVFFILCCTGCGTNCMGKLKCNRCCDRYEEYDLEPHKVHVH
binding result: no binding
